Laboratory results taken from patent publication US20110098440A1 (Novo Nordisk, published 2011).

B1: A8H, A22K(N^ε-Octadecandioyl-γGlu-[2-(2-{2-[2-(2-aminoethoxy)ethoxy]acetylamino}ethoxy)ethoxy]-acetyl), B29R, desB30 human insulin (ligand)
chain 1: GIVEQCCHSICSLYQLENYCNK
chain 2: FVNQHLCGSHLVEALYLVCGERGFFYTPR
modifications: A22K(N^ε-Octadecandioyl-γGlu-[2-(2-{2-[2-(2-aminoethoxy)ethoxy]acetylamino}ethoxy)ethoxy]-acetyl)
notes: also called C18-gGlu-OEG-OEG, A8H, A22K, B29R
B2: A14E, A22K(N^ε-Octadecandioyl-γGlu-(3-[2-(2-{2-[2-(2-{2-[2-(2-aminoethoxy)ethoxy]ethoxy}ethoxy)ethoxy]ethoxy}ethoxy)ethoxy]propionyl)), B25H, B29R, desB30 … (ligand)
chain 1: GIVEQCCTSICSLEQLENYCNK
chain 2: FVNQHLCGSHLVEALYLVCGERGFHYTPR
modifications: A22K(N^ε-Octadecandioyl-γGlu-(3-[2-(2-{2-[2-(2-{2-[2-(2-aminoethoxy)ethoxy]ethoxy}ethoxy)ethoxy]ethoxy}ethoxy)ethoxy]propionyl))
notes: also called C18-gGlu-PEG7, A14E, A22K, B25H, B29R
B3: A14E, A22K(N^ε-Octadecandioyl-γGlu-(3-(2-{2-[2-(2-aminoethoxy)ethoxy]ethoxy}ethoxy)propionyl)-γGlu), B25H, B29R, desB30 human insulin (ligand)
chain 1: GIVEQCCTSICSLEQLENYCNK
chain 2: FVNQHLCGSHLVEALYLVCGERGFHYTPR
modifications: A22K(N^ε-Octadecandioyl-γGlu-(3-(2-{2-[2-(2-aminoethoxy)ethoxy]ethoxy}ethoxy)propionyl)-γGlu)
notes: also called C18-gGlu-PEG3-gGlu, A14E, A22K, B25H, B29R
B4: A18L, A22K(N^ε-Octadecandioyl-γGlu-[2-(2-{2-[2-(2-aminoethoxy)ethoxy]acetylamino}ethoxy)ethoxy]-acetyl), B29R, desB30 human insulin (ligand)
chain 1: GIVEQCCTSICSLYQLELYCNK
chain 2: FVNQHLCGSHLVEALYLVCGERGFFYTPR
modifications: A22K(N^ε-Octadecandioyl-γGlu-[2-(2-{2-[2-(2-aminoethoxy)ethoxy]acetylamino}ethoxy)ethoxy]-acetyl)
notes: also called C18-gGlu-OEG-OEG, A18L, A22K, B29R
B5: A14E, A22K(N^ε-Eicosanedioyl-γGlu-γGlu-(3-[2-(2-{2-[2-(2-{2-[2-(2-aminoethoxy)ethoxy]ethoxy}ethoxy)ethoxy]ethoxy}ethoxy)ethoxy]propionyl)), B25H, B29R, desB30 … (ligand)
chain 1: GIVEQCCTSICSLEQLENYCNK
chain 2: FVNQHLCGSHLVEALYLVCGERGFHYTPR
modifications: A22K(N^ε-Eicosanedioyl-γGlu-γGlu-(3-[2-(2-{2-[2-(2-{2-[2-(2-aminoethoxy)ethoxy]ethoxy}ethoxy)ethoxy]ethoxy}ethoxy)ethoxy]propionyl))
notes: also called C20-gGlu-gGlu-PEG7, A14E, A22K, B25H, B29R
B6: A14E, A22K(N^ε-[2-(2-[2-(2-[2-(Octadecandioyl-γGlu)amino]ethoxy)ethoxy]acetylamino)ethoxy]ethoxy)-acetyl]), B25H, B29R, desB30 human insulin (ligand)
chain 1: GIVEQCCTSICSLEQLENYCNK
chain 2: FVNQHLCGSHLVEALYLVCGERGFHYTPR
modifications: A22K(N^ε-[2-(2-[2-(2-[2-(Octadecandioyl-γGlu)amino]ethoxy)ethoxy]acetylamino)ethoxy]ethoxy)-acetyl])
notes: also called C18-gGlu-OEG-OEG, A14E, A22K, B25H, B29R
B7: A14E, A22K(N^ε-Eicosanedioyl-γGlu-(3-(2-{2-[2-(2-aminoethoxy)ethoxy]ethoxy}ethoxy)propionyl)), B25H, B29R, desB30 human insulin (ligand)
chain 1: GIVEQCCTSICSLEQLENYCNK
chain 2: FVNQHLCGSHLVEALYLVCGERGFHYTPR
modifications: A22K(N^ε-Eicosanedioyl-γGlu-(3-(2-{2-[2-(2-aminoethoxy)ethoxy]ethoxy}ethoxy)propionyl))
notes: also called C20-gGlu-PEG3, A14E, A22K, B25H, B29R

Legend:
[1] = target: T1, purified recombinant human insulin receptor (IR-A) (human, UniProt P06213-2 28-1370, limits assumed); assay: SPA competition, displacement of A14Tyr[125I]-human insulin from human insulin receptor, 4.5% HSA; relative to desB30 human insulin = 100%
T1 construct: The receptor was captured on SPA beads through the F12 antibody
Procedure: (§1) The affinity of the acylated insulin analogues of this invention for the human insulin receptor is determined by a SPA assay (Scintillation Proximity Assay) microtiterplate antibody capture assay. […] A total of 100 μl reagent mix is then added to each well in the Packard Optiplate and a dilution series of the insulin derivative is made in the Optiplate from appropriate samples. The samples are then incubated for 16 hours while gently shaken. The phases are the then separated by centrifugation for 1 min and the plates counted in a Topcounter. The binding data were fitted using the nonlinear regression algorithm in the GraphPad Prism 2.01 (GraphPad Software, San Diego, Calif.).

[2] = target: T1, purified recombinant human insulin …; assay: SPA competition, displacement of A14Tyr[125I]-human insulin from human insulin receptor, 0% HSA; relative to desB30 human insulin = 100%
Procedure: as §1

| Binder | IR-A affinity (4.5% HSA) [1] | IR-A affinity (0% HSA) [2] |
| --- | --- | --- |
| B1 | 63% | 417% |
| B2 |  | 28% |
| B3 |  | 23% |
| B4 | 23.6% | 339% |
| B5 |  | 25% |
| B6 | 5% | 22.4% |
| B7 | 5.2% |  |
